Test results reported in the supplement of paper PMC7877785.
± gives the uncertainty stated by the source.

Test: self-splicing fitness, log relative to wild type (ln ratio); higher = more splicing; Tetrahymena group I intron in knt gene, E. coli kanamycin selection, DiMSum; sequences stand for … in CUCUCU…GGAGGGAAAAGUUAUCAGGCAUGCACCUGGUAGCUAGUCUUUAAACCAAUAGAUUGCAUCGGUUUAAAAGGCAAGACCGUCAAAUUGCGGGAAAGGGGUCAACAGCCGUUCAGUACCAAGUCUCAGGGGAAACUUUGAGAUGGCCUUGCAAAGGGUAUGGUAAUAAGCUGACGGACAUGGUCCUAACCACGCAGCCAAGUCCUAAGUCAACAGAUCUUCUGUUGAUAUGGAUGCAGUUCACAGACUAAAUGUCGGUCGGGGAAGAUGUAUUCUUCUCAUAAGAUAUAGUCGGACCUCUCCUUAAUGGGAGCUAGCGGAUGAAGUGAUGCAACACUGGAGCCGCUGGGAACUAAUUUGUAUGCGAAAGUAUAUUGAUUAGUUUUGGAGUACUCGUGGUCG
Outline: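 Pooled colonies went to amplicon sequencing on an Illumina HiSeq 2500 after six replicate transformations. The plates were LB agar with 100 μg/mL carbenicillin, 50 μM IPTG and 0.2% rhamnose, with or without 25 μg/mL kanamycin, incubated overnight at 37°C or 30°C. The E. coli BL21(DE3) library had all eight P1ex-region intron nucleotides randomised, the intron placed in the knt kanamycin-resistance gene on pET-22b(+). DiMSum fitness is the error-weighted combination of replicate fold changes, kanamycin against none, normalised to wild type.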

Row | Sequence | self-splicing fitness (ln) (30 °C) | self-splicing fitness (ln) (37 °C)
1 | ACACAGCAAUAUUACGGGGC | -2.8 ± 0.16 | -3.16 ± 0.19
2 | ACACAGCAAUAUUACGGUAA | -3.67 ± 0.21 | -1.18 ± 0.1
3 | ACACAGCAAUAUUACGUCAG | -3.58 ± 0.14 | -1.67 ± 0.12
4 | ACACAGCAAUAUUACGUGCG | -0.45 ± 0.044 | -0.606 ± 0.063
5 | ACACAGCAAUAUUACGUUCC | -2.17 ± 0.088 | -1.29 ± 0.1
6 | ACACAGCAAUAUUACGUUUA | -2.9 ± 0.11 | -1.99 ± 0.088
7 | ACAGAGCAAUAUUACGAAAC | -2.71 ± 0.29 | –
8 | ACAGAGCAAUAUUACGAGCG | -3.08 ± 0.14 | -2.51 ± 0.19
9 | ACAGAGCAAUAUUACGAUAC | -1.87 ± 0.35 | –
10 | ACAGAGCAAUAUUACGAUCA | -3.4 ± 0.28 | –
11 | ACAGAGCAAUAUUACGAUGA | -1.49 ± 0.17 | -1.15 ± 0.16
12 | ACAGAGCAAUAUUACGCGCG | -2.69 ± 0.098 | -1.47 ± 0.1
13 | ACAGAGCAAUAUUACGCUGG | -3.47 ± 0.14 | -2.53 ± 0.16
14 | ACAGAGCAAUAUUACGGAAA | -3.38 ± 0.36 | -2.81 ± 0.38
15 | ACAGAGCAAUAUUACGGAGU | -3.05 ± 0.23 | -3.24 ± 0.35
16 | ACAGAGCAAUAUUACGGAUC | -3.24 ± 0.4 | -1.85 ± 0.26
17 | ACAGAGCAAUAUUACGGAUU | -3.67 ± 0.18 | -1.84 ± 0.14
18 | ACAGAGCAAUAUUACGGCAG | -2.25 ± 0.14 | -2.45 ± 0.22
19 | ACAGAGCAAUAUUACGGCCG | -2.2 ± 0.27 | -1.33 ± 0.25
20 | ACAGAGCAAUAUUACGGCGC | -1.6 ± 0.14 | -0.0642 ± 0.18
21 | ACAGAGCAAUAUUACGGUGA | -2.32 ± 0.13 | -2.41 ± 0.21
22 | ACAGAGCAAUAUUACGGUUA | -2.77 ± 0.21 | -3.05 ± 0.33
23 | ACAGAGCAAUAUUACGUAUC | -4.32 ± 0.29 | -1.46 ± 0.14
24 | ACAGAGCAAUAUUACGUCAC | -3.39 ± 0.26 | -2.43 ± 0.41
25 | ACAGAGCAAUAUUACGUCCA | -2.34 ± 0.2 | -2.25 ± 0.26

Row | Sequence | self-splicing fitness (ln) (30 °C) | self-splicing fitness (ln) (37 °C)
26 | ACAGAGCAAUAUUACGUGUU | -2.64 ± 0.12 | -2.51 ± 0.18
27 | ACAGAGCAAUAUUACGUUCG | -2.06 ± 0.11 | -0.493 ± 0.12
28 | ACAGAGCAAUAUUACGUUGC | -2.78 ± 0.18 | –
29 | ACAGAGCAAUAUUACGUUGU | -3.88 ± 0.2 | -2.34 ± 0.18
30 | ACAUAGCAAUAUUACGAAAA | -2.4 ± 0.25 | -3.31 ± 0.3
31 | ACAUAGCAAUAUUACGAAAC | -3.95 ± 0.26 | -2.45 ± 0.33
32 | ACAUAGCAAUAUUACGAAAG | -3.36 ± 0.22 | -2.06 ± 0.23
33 | ACAUAGCAAUAUUACGAAAU | -3.43 ± 0.19 | -2.75 ± 0.26
34 | ACAUAGCAAUAUUACGAACC | -1.16 ± 0.13 | -1.13 ± 0.2
35 | ACAUAGCAAUAUUACGAACU | -0.612 ± 0.1 | 0.274 ± 0.12
36 | ACAUAGCAAUAUUACGACAC | -1.62 ± 0.15 | -1.29 ± 0.21
37 | ACAUAGCAAUAUUACGACAU | -0.718 ± 0.011 | -0.22 ± 0.032
38 | ACAUAGCAAUAUUACGAGCC | -3.94 ± 0.36 | -2.42 ± 0.28
39 | ACAUAGCAAUAUUACGCCAC | -3.57 ± 0.27 | -0.959 ± 0.17
40 | ACAUAGCAAUAUUACGCCGC | – | -2.65 ± 0.4
41 | ACAUAGCAAUAUUACGCCUC | – | -1.29 ± 0.24
42 | ACAUAGCAAUAUUACGGACU | -0.288 ± 0.057 | 0.36 ± 0.074
43 | ACAUAGCAAUAUUACGGAGU | -3.73 ± 0.12 | -2.55 ± 0.13
44 | ACAUAGCAAUAUUACGGAUU | -3.42 ± 0.13 | -1.68 ± 0.12
45 | ACAUAGCAAUAUUACGGCAA | -0.85 ± 0.09 | -0.569 ± 0.084
46 | ACAUAGCAAUAUUACGGCAC | -1.56 ± 0.11 | -1.2 ± 0.15
47 | ACAUAGCAAUAUUACGGCCU | -0.828 ± 0.074 | 0.129 ± 0.1
48 | ACAUAGCAAUAUUACGGCGU | -0.355 ± 0.07 | 0.246 ± 0.081
49 | ACAUAGCAAUAUUACGGUAU | -3.6 ± 0.11 | -1.77 ± 0.11
50 | ACAUAGCAAUAUUACGGUGU | -3.8 ± 0.21 | -3.54 ± 0.3

Row | Sequence | self-splicing fitness (ln) (30 °C) | self-splicing fitness (ln) (37 °C)
51 | ACAUAGCAAUAUUACGUAAC | -3.65 ± 0.23 | -3.2 ± 0.35
52 | ACAUAGCAAUAUUACGUAAU | -2.87 ± 0.11 | -1.93 ± 0.14
53 | ACAUAGCAAUAUUACGUACG | -2.39 ± 0.12 | -1.87 ± 0.16
54 | ACAUAGCAAUAUUACGUAGA | -3.71 ± 0.15 | -1.62 ± 0.12
55 | ACAUAGCAAUAUUACGUAUG | -2.67 ± 0.12 | -1.73 ± 0.12
56 | ACAUAGCAAUAUUACGUCUA | -2.05 ± 0.096 | -1.1 ± 0.083
57 | ACAUAGCAAUAUUACGUUCU | -1.19 ± 0.11 | -0.553 ± 0.12
58 | ACCAAGCAAUAUUACGAAAA | -3.44 ± 0.2 | -2.91 ± 0.23
59 | ACCAAGCAAUAUUACGAACC | -1.62 ± 0.1 | -0.978 ± 0.12
60 | ACCAAGCAAUAUUACGACCG | -1.17 ± 0.096 | -0.119 ± 0.12
61 | ACCAAGCAAUAUUACGACGC | -0.493 ± 0.074 | 0.0307 ± 0.098
62 | ACCAAGCAAUAUUACGACUU | -3.83 ± 0.19 | -1.85 ± 0.12
63 | ACCAAGCAAUAUUACGAUAC | -2.83 ± 0.32 | -1.99 ± 0.3
64 | ACCAAGCAAUAUUACGAUCG | -1.43 ± 0.067 | -0.395 ± 0.093
65 | ACCAAGCAAUAUUACGCCAU | -0.983 ± 0.12 | -1.56 ± 0.16
66 | ACCAAGCAAUAUUACGCCCC | -1.37 ± 0.35 | 0.27 ± 0.24
67 | ACCAAGCAAUAUUACGCCGC | -3.04 ± 0.24 | -0.837 ± 0.18
68 | ACCAAGCAAUAUUACGCCUA | -1.04 ± 0.11 | -0.201 ± 0.11
69 | ACCAAGCAAUAUUACGGACG | -1.09 ± 0.069 | -0.0232 ± 0.083
70 | ACCAAGCAAUAUUACGGAGC | -3.33 ± 0.23 | -3.2 ± 0.33
71 | ACCAAGCAAUAUUACGGCAC | -0.797 ± 0.091 | -0.913 ± 0.11
72 | ACCAAGCAAUAUUACGGCGU | -1 ± 0.05 | 0.0505 ± 0.064
73 | ACCAAGCAAUAUUACGGGCU | -1.12 ± 0.058 | -1.16 ± 0.083
74 | ACCAAGCAAUAUUACGGGGC | -3.74 ± 0.18 | -2.1 ± 0.14
75 | ACCAAGCAAUAUUACGUACC | -1.57 ± 0.17 | -1.32 ± 0.17

Row | Sequence | self-splicing fitness (ln) (30 °C) | self-splicing fitness (ln) (37 °C)
76 | ACCAAGCAAUAUUACGUAGA | -2.66 ± 0.14 | -2.04 ± 0.16
77 | ACCAAGCAAUAUUACGUCAG | -3.58 ± 0.15 | -1.56 ± 0.1
78 | ACCAAGCAAUAUUACGUCUU | -4.21 ± 0.14 | -2.59 ± 0.12
79 | ACCAAGCAAUAUUACGUGUG | -2.06 ± 0.048 | -1.1 ± 0.064
80 | ACCAAGCAAUAUUACGUUCU | -1.56 ± 0.06 | -0.915 ± 0.076
81 | ACCAAGCAAUAUUACGUUUU | -3.36 ± 0.1 | -2.29 ± 0.096
82 | ACCCAGCAAUAUUACGAAUC | -2.13 ± 0.12 | -1.45 ± 0.16
83 | ACCCAGCAAUAUUACGAAUG | -3.41 ± 0.13 | -1.2 ± 0.13
84 | ACCCAGCAAUAUUACGAGUC | -4.16 ± 0.15 | -2.3 ± 0.15
85 | ACCCAGCAAUAUUACGAUAA | -2.15 ± 0.091 | -0.0251 ± 0.098
86 | ACCCAGCAAUAUUACGAUGA | -1.43 ± 0.09 | -0.256 ± 0.088
87 | ACCCAGCAAUAUUACGCAUG | -4.1 ± 0.15 | -2.58 ± 0.15
88 | ACCCAGCAAUAUUACGCCUC | -1.05 ± 0.084 | -0.0787 ± 0.11
89 | ACCCAGCAAUAUUACGCGCC | -0.907 ± 0.064 | 0.136 ± 0.094
90 | ACCCAGCAAUAUUACGCUUC | -2.01 ± 0.076 | -1 ± 0.095
91 | ACCCAGCAAUAUUACGGAAG | -2.49 ± 0.091 | -1.02 ± 0.1
92 | ACCCAGCAAUAUUACGGACG | -1.1 ± 0.07 | -0.9 ± 0.08
93 | ACCCAGCAAUAUUACGGAGA | -0.451 ± 0.048 | 0.122 ± 0.063
94 | ACCCAGCAAUAUUACGGGCG | -0.609 ± 0.055 | -0.0252 ± 0.077
95 | ACCCAGCAAUAUUACGGUGC | -1.11 ± 0.069 | -0.261 ± 0.086
96 | ACCCAGCAAUAUUACGGUGG | -3.57 ± 0.15 | -2.76 ± 0.18
97 | ACCCAGCAAUAUUACGGUUC | -2.22 ± 0.072 | -1.32 ± 0.094
